Drawing on a protein production outcome set (Wang et al. 2014), this text covers protein production for 15 sequences.

The data set in a line: label from the status in PepcDB records.
On to “MSYNLNLSHNIYKDAKLGTYYFRITYYDKSNTRKYITRKGFKQRKDAVKKCNEMMDELEGVGHLNRLPFDKLVEEYIDWYSARRKTSSVKALKTHTNNHLLPYFKSMDVFKMTTQDVMKFQNKKLKEGHSGDYLKKMHVYLVSLLNHAMKFHELKQNVASLVGNFEIESQKRLNYWTLEQFNQFYEALATQQQKLFFKLLFYSGARKGEIRALTWRDINFDDDFIHINKTDYHGEVTAPKTKSAIRDIYLPTHMMYDIKDYLIWYKENNIYKDDYVLFGTFYKAYSESTIDRWFTNALKVLDEQLPNGQNFPRIVIHELRHSHASMLVNLGASVMIIAQRLGHSDTTEVYNRYGHLYPSTQKEIVKYL”, for which the protein production result is “failed”.
In the case of “MSYSNILVAVAVTPESQQLLAKAVSIARPVKGHISLITLASDPEMYNQLAAPMLEDLRNVMQEETQSFLDKLIQDAGYPVDKTFIAYGELSEHILEVCRKHHFDLVICGNHNHSFFSRASCSAKRVITSSEVDVLLVPLTGD” it was “failed”.
In the case of “MSYVDISYYKDNFKGDILNDDTLENRLERASDQIDKLTYNRIIGVEFKNLSPFQQDKIKKAVCLQAEFIEQYGEFINMPLSGFSAGSTSVSFNGSIVNGITTTQEVINYIYQTGLNSRRILEHHHHHH” it was “failed”; in that of “MSYVPPHKRLENVALRASSVPPSLLKKHNKNVGSTNTKIIYANGYISRWFLVGSDPEDSNFQLVPGSSEWRKDAEEKSLVILAKSDLGKLENPWLWVTEKVEDDIIMGFDRAKKTLLGYGGSEDVKLRLIARFGTLRDGPLTKSTLEKLKKMFRTNVPKSYVENVGYRAVHKMGFCVEETKELYHVKVSDNTRPDVTISCKCMAELNALRHLNLDVSCLDQDLDMRLMVDSKRTLTNLSENEITNLKELTDSAVVDPTVKGGLKWPLGKSSCADRYIVCGVWHTVTTTYINQTMRLQIREADRYDFRTGVGGTSSEVNFKLKALSTILLKEEDVERKCVSDMLKDCLKAVWEYFLKEV”, “failed”; in that of “MTAAEPYTVELAADVHAYVQPDGGWCLNNAGFVSDGTTTLLVDTAATERRTRALSAAIAAAGVPAPRFVVNTHHHGDHTYGNSHFAPTATIVSHAECRRETLANGRQLHLLWPENDFGDIRIQAADLTYTGHTTVHVGAVDAEVIHPGVAHTVSDSVVWLPHRRVLFTGDLVFEGGTPFILMGSLSGSLRALDVLRQLGAETVVPGHGPVTDPSAFDRTERYLRFVADIAHKSHAAGRTPLEAARETDLGEFAALPESERFVANLHRAYAELDGAPEGAPLDVPAAVRDIAAMNGGRMVACHA”, “failed”.
In the case of “MTAAQDGRIITFYSYKGGTGRTMALANTAWILAANGKRVLAVDWDLEAPGLDRFFRPFLDPHALAATSGIIDIINEYAWAATSGSQRSGAWHQEYAHVEQHAVSLTPERHGLRFAKGGSLDFLSAGRQDRSYSATVSSFEWDNFYERLGGGLFLDALRDDMKASYEYVLIDSRTGLSDNADICTIQMPDMLVDCFTLSDQSLDGAAAVARSVEDGYRKRKIRVLPVPMRIDEGEKEKVDAGRALARLKFDGLPKGLGGEDLSPEELSQYWGAVEIPYRPYYAYEETLATVGDESGIANSLLSAFERLTNVISDGEVASLPPVPEPVRLRCLDAFTRRRPLTTAADVVVAYAAENRMWADWIEAVLKHSGCNVTLYDVSAGPVERPDAATRALVLLSNAFQKSRYGEDVWRAFTGGDPDGAHPALVPLRVDEVRLPDSYLAHEPVDLHRLEEAQCVAGLLSALELPAQPTDGAPAAPRFPGSTPATWNAPQRNQTFTGRNVILTQVREQLRSGMSVVLPQPQALTGLGGVGKTQVALEYVHRFMADYDLVWWTSAESVDNVVASLAELGARIGAPGGEDMALVSRETVQMLARGVPTKRWILIFDNADNPEQLTRYFPAGGGGHILVTSRNQAWATQGQSLPVDVFLRQESIEHLSRRAPGLTAHEADRVATAVGDLPLAVEQAAAWLAETATPIEDYLRQLAEQTTDVLDLNQPADYPETVAATWNISIARLKDRSPASVRLLQLCAFLAPEPISSHLLYSKEMIDELRKVDPTLQESLLLGRVIREIARFALAKVDQVSNSIQVHRLVQAVIRSQLTQEEQRHARHVVHTVLAGARPDGDEPIDDPETWPRFGVIWPHLSASDVRNCTENEPRRLLIDRVRYLWKRGDFPAAQQLAEDLLGHWKPLLGEEDVQYLYLRCQLANVMRSQGRYVESRAINTELLEQQRRVLGAAHPHTYVTMSSLASDLAALGEYTLAVELAREAHDGFSQIFHESHRRTLSAANNLALALRMVGRYGDARSLDQDTYDRRMEVLGPDHPYTLASAGRLGRDLREVGRYEDSVSLLSRAYDAHKRILGKGFPGTLSCAKSLAVSLRRTGRLEDARRLTTATRAQYRTQYDAHTPDSLACDLNMAADLYAADEREAAREVAKEALTEYMKVPGEEHPYTQAALNNLGIFHWGCGDAVEAEAVFRQVLPRMSDVLGDRHPHTLFTEANFANVLADQGRLEEAWALEKRAMDTLRTVLGPQHPETLAVVSNCALTLGALGRTDEARRLREETLAELNRQGRQLGENNGIIQLTGHERRIYRDLEPLAV”, the protein production entry is given as “failed”.
In the case of “MTAAQFAALSPLVVLAIAAVAAMMLVPLARLQIVQASAAAGLAIAAALVLLRIGAPAAPMGALFTDDGPARFGIVFACLVSLGALVFLRTGHPAKEAPSLLVLVAIGAATLAGAGHAATLFLGIEILSLSLIALFAFRLTRQGLEAAYKFLVMSGLASSALLLGIALIFAETGALDFAGWGGRGALTAFGTALLLAGLAFKFSLVPFHMWTPDAFEAAPASAATLAGVVSKSAVAIVILRLALTAHLPEPVWSQGLAALGGASVLIGNLLALRQPQLPRMLGYSTIAHSGYIALIIASGTPHAGEAVLFYLAIYAPAMLGALCVSAALGRAPTLPDLHGLMKRRPLEAIALSLSLLSLAGLPAAGGFIAKLFLLRVLIDGSLWVLVGIVVAGSSLGFFYYAKFFTAPFVGHTHDESEPLPQLDRGLLIVCIALIVIFGVAPAGLMNVVAATMAP” it was “failed”; in that of “MTAEETVNVKEVEIIKLILDFLNSKKLHISMLALEKESGVINGLFSDDMLFLRQLILDGQWDEVLQFIQPLECMEKFDKKRFRYIILKQKFLEALCVNNAMSAEDEPQHLEFTMQEAVQCLHALEEYCPSKDDYSKLCLLLTLPRLTNHAEFKDWNPSTARVHCFEEVCVMVAEFIPADRKLSEAGFKASNNRLFQLVMKGLLYECCVEFCQSKATGEEITESEVLLGIDLLCGNGCDDLDLSLLSWLQNLPSSVFSCAFEQKMLNIHVDKLLKPTKAAYADLLTPLISKLSPYPSSPMRRPQSADAYMTRSLNPALDGLTCGLTSHDKRISDLGNKTSPMSHSFANFHYPGVQNLSRSLLLENTECHSIYEESPERSDTPVETQQPVSIEPMCQGSGLEKEPANGAQNPVPAKQQEKNELRDSTEQFQEYYRQRLRYQQHLEQKEQQRQIYQQMLLEGGVNQEDGPDQQQNLTEQFLNRSIQKLGELNIGMDSLGNEVPVLNQQCLGSKNSGSNNSSVTSFSSPPQDSSQRLTHDTSNIHTSTPRNPGSTNHIPFLEESPCGSQNSSEHSVVKPSPGDSSGSLSRSKGEEDDKSKKQFVCINTLEDTQAVRAVAFHPSGSLYAVGSNSKTLRVCAYPEKLDTSAHDGPKQPVVRFKRNKHHKGSIYCVAWSPCGQLLATGSNDKYVKVLPFNAETCNATGPDLEFSMHDGTIRDLAFMEGPESGGAILISAGAGDCNIYTTDCQRGQGLHALSGHTGHILALYTWSGWMIASGSQDKTVRFWDLRVPSCVRVVGTTFHGTGSAVASVAVDPSGRLLATGQEDSSCMLYDIRGGRMVQSYHPHSSDVRSVRFSPGAHYLLTGSYDMKIKVTDLQGDLTKQLPLMVVGEHKDKVIQCRWHTQDLSFLSSSADRTVTLWTYSG”, “failed”.
In the case of “MTAFILVSGMFTGTHIWQDTAARLTARGAEVHTVALTGLDAPRAAAAPGVDLETHIADVLAVIDSVGAAGDRRIVLVGHDYGIHPAVGAADRRAERVDRIVHLDSGLPRDGVPALAAVPDQSLRERLAGAAGADGVLPPPAHEEWPRWGSTAGVPDAALDRLTALAAPQPLGTLLQPLRLTGAVDPVPTTGVLCTGNGTSIELVQMLVRLGDPALRPLTDPRVSFFELPTGHWPMLSLPAELTDVLLRAAAG” it was “failed”.
In the case of “MTAGHGIAALPGTMRVFERGWLSSNNILFFDDDAHGGCALVDSGYLTHAPQTVALARHALQGRPLRRLLNTHLHADHCGGNAALQAAYGCRIRVPAAQIGDVRRWDTDALSYRPTGQQCERFTLPEGDTAEAGLADGMTARLGGLDWQVISAPGHDPHAVILYSPDTRVLLSADALWERGFGVIFPELEGESGFAEQEAILACIARLGARVVVPGHGRPFTEVDAAIDAARGRLAYLRADPERNALHALRVLVKFKLLEQQAMTREALAAWFAQASLIPRLQARFFAATPLPALLEATVAALVKAGAAAVEATRIVNRG” it was “failed”.
Turning to “MTALAVTLKNWFFTRNSMILNANILLFIILFNTLPFEPQVVTGISILVFVAILWLTEAIHVSITALLIPMLAVFLGVFNTQAALNNFSNSIIFLFLGGFALAAALHKQKLDQALADKVLLIARGRMSVAVFMLFGVSAGLSMWISNTATAAMMLPLVLGVMTKLDAKKNHNTFLFVLLGIAYSASIGGIATLVGSPPNAIAAAEVGLNFTEWMKLGLPISLILMPIAILVLYTMTKPDLSHKFELDHKPVEWTNGKMVTLAIFLLTVTLWIFSKPINTMLGGFAKFDTLVAIGAILLLGASRAVEWKDIEKTTDWGVLILFGGGICLSNVLKATGTSVFLAHSLTGFLEQAGVLLTILSVVAFVVFLTEFASNTASAALLVPVFATIAEALGLSPVILSALIAVAASCAFMLPVATPPNAIVFGTGHIKQKEMMRIGFVLNIACIGALTLFAWLFW”, the protein production result is listed as “failed”.
In the case of “MTAMSPEQSRAIAKKLAFWATLACLLAVVVIMLGAWTRLVHAGLGCPDWPGCYGFLTVPQDETRIAIANARFPETPVDVSKGWPEMIHRYAAGTLGLLVFGLAIASVRKRRAGLPVKLPLFIAGFIVLQAAFGMWTVTLKLWPQVVALHLLGGFTTLSLLLLLTLRLRRRARESEAPRPAMAASLARLRPWLYGGLLLVIAQIALGAWTAANYAAVACTDLPTCQGQWWPEGMDFQHGFDITQHVGPNYLGGQLTSDGRVAIHVSHRLGAVLVLGYLAILLGLLWRQRAQSGLDRAIALVGGALVLQFCLGLTNVWLHIPLIIAVAHNAMGAGLLLSMVHLIWRHHQLALPALSPAPHTTTINREVTA” it was “failed”.
In the case of “MTARARSALLDAEHIVGYTTYVELLPDEITEGADDIYNTPMCGEVSRTEEAIDRALAGNDVAIIGSGDPNVYALAGLALEIIESKGATATMLDFDVVPGVP” it was “failed”.
In the case of “MTASPIVVFDLDGTLIDTAPDLINALNFILVREGMPAVPMAVARNMIGQGARRLLERGLELDGRVIAQDDVNRLTVDFIDYYAAHIADESRPFEGLEATLDELSESGYRFAVCTNKLEWLSKLLLDRLGLSPRFAAICGADTFGVAKPDPAILRETVAKAGGDLSAAIMVGDAGPDVGVARRAGVPVIGVEFGYTEVPIAELQPDLLVGHMRELPNAVGRLLPR” it was “not failed”; in that of “MTATWEKKEGNEGLLTVTVPAEKVNKALDQAFKKVVKQINVPGFRKGKVPRPIFEQRFGVEALYQDAIDILLPDAYGEAIDETDIKPVAQPEVSVTQIEKGKDFIFEATVTVEPEVKLGDYKGLEIEKQETELSDDELQEAIDHSLGHLAEMVVKEDGVVENGDTVNIDFSGSVDGEEFEGGQAEGYDLEIGSGSFIPGFEEQLEGMKVDEEKDVVVTFPEEYHAEELAGKEATFKTKVNEIKFKEVPELTDEIANELDAEANTVDEYKENLRKRLAEQKATDAENVEKEEAITKATDNTTIDIPEAMVNTELDRMVSEFAQRIQQQGLDLQTYFQISGQDETQLREQMKDDAEQRVKTNLTLTAIAEAEKIEATDEDIDKELEKMSKQFNISVEDIKNTLGNTDIIKNDVRIQKVIDLLRDNAKFVEGTKED”, “failed”.
